Laboratory results from patent US20230226151A1 (NGM BIOPHARMACEUTICALS, published 2023).

Molecular target: Mouse FGFR4/β-klotho complex co-expressed in L6 cells (mouse, UniProt Q03142 17-799; Q99N32 1-1043)
Test: cell-based or functional assay

Mouse FGFR4/β-klotho complex co-expressed in L6 cells, sequence (Q03142 17-799, chain 1 of 2): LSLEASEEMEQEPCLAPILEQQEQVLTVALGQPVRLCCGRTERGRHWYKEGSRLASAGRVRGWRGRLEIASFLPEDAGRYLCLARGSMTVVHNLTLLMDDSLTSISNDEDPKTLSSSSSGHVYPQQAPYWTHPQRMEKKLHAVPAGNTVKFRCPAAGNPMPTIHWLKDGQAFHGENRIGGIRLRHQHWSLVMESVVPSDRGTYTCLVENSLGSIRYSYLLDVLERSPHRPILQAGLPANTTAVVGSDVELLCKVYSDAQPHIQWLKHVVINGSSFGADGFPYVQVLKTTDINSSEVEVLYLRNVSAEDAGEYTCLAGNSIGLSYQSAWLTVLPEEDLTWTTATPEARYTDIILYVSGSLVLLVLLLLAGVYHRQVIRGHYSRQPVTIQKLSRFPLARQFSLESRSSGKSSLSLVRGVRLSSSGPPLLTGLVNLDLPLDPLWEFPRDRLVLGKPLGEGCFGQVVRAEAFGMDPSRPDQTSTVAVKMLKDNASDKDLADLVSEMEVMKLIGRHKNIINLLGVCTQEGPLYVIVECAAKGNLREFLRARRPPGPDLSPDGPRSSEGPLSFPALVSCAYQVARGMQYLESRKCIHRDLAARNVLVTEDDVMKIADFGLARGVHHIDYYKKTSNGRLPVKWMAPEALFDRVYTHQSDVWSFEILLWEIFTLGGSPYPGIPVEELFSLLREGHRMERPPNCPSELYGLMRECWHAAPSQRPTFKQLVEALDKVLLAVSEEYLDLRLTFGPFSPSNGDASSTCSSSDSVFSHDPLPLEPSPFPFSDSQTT
Mouse FGFR4/β-klotho complex co-expressed in L6 cells, sequence (Q99N32 whole entry, chain 2 of 2): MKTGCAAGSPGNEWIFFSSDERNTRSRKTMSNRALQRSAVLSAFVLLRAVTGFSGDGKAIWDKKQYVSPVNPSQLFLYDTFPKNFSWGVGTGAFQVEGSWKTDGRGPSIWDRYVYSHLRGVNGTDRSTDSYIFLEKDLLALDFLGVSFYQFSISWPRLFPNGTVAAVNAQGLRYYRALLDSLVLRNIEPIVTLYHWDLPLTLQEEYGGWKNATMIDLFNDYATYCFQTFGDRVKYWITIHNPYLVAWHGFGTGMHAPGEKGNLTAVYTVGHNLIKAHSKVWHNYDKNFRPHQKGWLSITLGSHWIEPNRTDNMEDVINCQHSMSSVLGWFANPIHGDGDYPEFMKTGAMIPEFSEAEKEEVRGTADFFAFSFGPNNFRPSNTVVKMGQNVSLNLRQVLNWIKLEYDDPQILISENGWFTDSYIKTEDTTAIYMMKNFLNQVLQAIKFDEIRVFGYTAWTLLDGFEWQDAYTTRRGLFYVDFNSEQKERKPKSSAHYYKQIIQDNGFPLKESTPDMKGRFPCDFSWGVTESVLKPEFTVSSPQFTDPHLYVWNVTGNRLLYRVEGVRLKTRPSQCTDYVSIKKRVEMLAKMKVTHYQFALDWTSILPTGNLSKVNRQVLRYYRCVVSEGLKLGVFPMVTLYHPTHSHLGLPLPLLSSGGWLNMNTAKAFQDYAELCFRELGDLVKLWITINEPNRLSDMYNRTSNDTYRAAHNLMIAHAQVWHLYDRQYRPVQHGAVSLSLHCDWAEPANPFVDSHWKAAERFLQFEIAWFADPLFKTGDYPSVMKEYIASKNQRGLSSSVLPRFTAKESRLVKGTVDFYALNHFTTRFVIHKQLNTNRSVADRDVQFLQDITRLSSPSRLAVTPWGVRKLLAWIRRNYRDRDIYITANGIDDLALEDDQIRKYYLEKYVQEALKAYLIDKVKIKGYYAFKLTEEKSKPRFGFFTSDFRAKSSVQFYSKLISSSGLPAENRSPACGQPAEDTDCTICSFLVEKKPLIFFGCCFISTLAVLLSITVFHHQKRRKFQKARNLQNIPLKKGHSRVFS

EC50 (pM), ELK1 luciferase reporter in L6 cells: 38.3 pM
Emax (fold potentiation), ELK1 luciferase reporter in L6 cells: 1.85 fold potentiation
B1: M70 (FGF19 variant) (ligand)
chain: MRDSSPLVHYGWGDPIRLRHLYTSGPHGLSSCFLRIRADGVVDCARGQSAHSLLEIKAVALRTVAIKGVHSVRYLCMGADGKMQGLLQYSEEDCAFEEEIRPDGYNVYRSEKHRLPVSLSSAKQRQLYKNRGFLPLSHFLPMLPMVPEEPEDLRGHLESDMFSSPLETDSMDPFGLVTGLEAVRSPSFEK
